From paper PMC7289862, “Real-time tracking reveals catalytic roles for the two DNA binding sites of Rad51” (Nature Communications, 2019)

Key:
Rad51-S2 [1] = target: T1, Rad51-S2 (Schizosaccharomyces pombe, UniProt P36601 1-365, R324A;K334A); experiment: FRET; 1 mM ATP; elongation comparable to WT; 30 mM HEPES-KOH pH 7.5, 100 mM KCl, 3 mM MgCl2, 1 mM DTT, 5% glycerol, 1 mM ATP, 25 C (EMSA: 2 mM ATP, 37 C, then 0.2% glutaraldehyde); conditions: protein: recombinant; label: internal fluorescein and ROX
T1 sequence: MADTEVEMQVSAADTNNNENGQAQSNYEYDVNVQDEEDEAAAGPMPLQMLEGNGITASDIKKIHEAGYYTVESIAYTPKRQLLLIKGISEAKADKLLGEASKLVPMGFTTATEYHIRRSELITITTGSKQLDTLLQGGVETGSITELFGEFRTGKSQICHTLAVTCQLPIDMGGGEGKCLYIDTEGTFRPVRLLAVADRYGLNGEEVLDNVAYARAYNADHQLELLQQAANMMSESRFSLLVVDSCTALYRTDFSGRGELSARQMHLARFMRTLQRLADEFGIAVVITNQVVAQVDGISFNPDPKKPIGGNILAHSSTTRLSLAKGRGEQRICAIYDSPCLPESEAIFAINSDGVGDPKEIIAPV

Rad51-L1 [2] = target: T2, Rad51-L1 (Schizosaccharomyces pombe, UniProt P36601 1-365, R257A); experiment: as above; conditions: protein: recombinant; label: internal fluorescein and ROX
T2 sequence: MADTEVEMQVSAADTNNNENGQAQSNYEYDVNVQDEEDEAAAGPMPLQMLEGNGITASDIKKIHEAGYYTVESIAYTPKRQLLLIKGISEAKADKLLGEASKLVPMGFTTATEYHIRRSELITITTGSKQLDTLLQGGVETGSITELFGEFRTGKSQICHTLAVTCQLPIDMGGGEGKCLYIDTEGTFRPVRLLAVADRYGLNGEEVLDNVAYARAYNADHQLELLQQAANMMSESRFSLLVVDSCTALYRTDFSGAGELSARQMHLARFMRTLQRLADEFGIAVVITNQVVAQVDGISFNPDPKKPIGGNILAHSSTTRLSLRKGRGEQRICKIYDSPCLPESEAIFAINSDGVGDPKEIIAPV

Rad51-L2 [3] = target: T3, Rad51-L2 (Schizosaccharomyces pombe, UniProt P36601 1-365, V295A); experiment: FRET; 1 mM ATP; 1.40x B-form; 30 mM HEPES-KOH pH 7.5, 100 mM KCl, 3 mM MgCl2, 1 mM DTT, 5% glycerol, 1 mM ATP, 25 C (EMSA: 2 mM ATP, 37 C, then 0.2% glutaraldehyde); conditions: protein: recombinant; label: internal fluorescein and ROX
T3 sequence: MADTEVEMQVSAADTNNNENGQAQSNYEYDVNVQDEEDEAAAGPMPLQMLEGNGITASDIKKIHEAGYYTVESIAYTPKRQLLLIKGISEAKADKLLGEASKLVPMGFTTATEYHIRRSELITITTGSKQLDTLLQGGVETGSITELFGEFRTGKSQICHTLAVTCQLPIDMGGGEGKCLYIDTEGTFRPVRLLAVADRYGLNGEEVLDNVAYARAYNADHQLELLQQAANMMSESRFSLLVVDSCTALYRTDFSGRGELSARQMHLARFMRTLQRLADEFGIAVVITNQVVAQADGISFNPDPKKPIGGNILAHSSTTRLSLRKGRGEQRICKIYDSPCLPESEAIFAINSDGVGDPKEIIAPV

Rad51 wild-type [4] = target: T4, Rad51 wild-type (Schizosaccharomyces pombe, UniProt P36601 1-365); experiment: FRET; 1 mM ATP; ssDNA elongated to 1.45x B-form; 30 mM HEPES-KOH pH 7.5, 100 mM KCl, 3 mM MgCl2, 1 mM DTT, 5% glycerol, 1 mM ATP, 25 C (EMSA: 2 mM ATP, 37 C, then 0.2% glutaraldehyde); conditions: protein: recombinant; label: internal fluorescein and ROX
T4 sequence: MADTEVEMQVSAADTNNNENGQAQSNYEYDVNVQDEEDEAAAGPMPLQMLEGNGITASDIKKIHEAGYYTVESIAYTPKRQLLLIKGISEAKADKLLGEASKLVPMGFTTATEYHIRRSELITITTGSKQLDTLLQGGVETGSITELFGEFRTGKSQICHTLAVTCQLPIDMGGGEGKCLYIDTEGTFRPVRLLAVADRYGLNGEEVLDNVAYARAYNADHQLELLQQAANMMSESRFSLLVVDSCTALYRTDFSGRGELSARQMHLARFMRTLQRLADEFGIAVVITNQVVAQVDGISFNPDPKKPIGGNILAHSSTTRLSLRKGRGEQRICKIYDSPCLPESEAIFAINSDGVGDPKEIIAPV

Rad51 wild-type [5] = target: T4, Rad51 wild-type; experiment: FRET; 1 mM ATP; dsDNA elongated to 1.37x B-form; 30 mM HEPES-KOH pH 7.5, 100 mM KCl, 3 mM MgCl2, 1 mM DTT, 5% glycerol, 1 mM ATP, 25 C (EMSA: 2 mM ATP, 37 C, then 0.2% glutaraldehyde); conditions: protein: recombinant; label: internal fluorescein and ROX on strand 1; blunt
Rad51-L2 [6] = target: T3, Rad51-L2; experiment: FRET; 1 mM ATP; reduced elongation, 1.28x B-form; 30 mM HEPES-KOH pH 7.5, 100 mM KCl, 3 mM MgCl2, 1 mM DTT, 5% glycerol, 1 mM ATP, 25 C (EMSA: 2 mM ATP, 37 C, then 0.2% glutaraldehyde); conditions: protein: recombinant; label: internal fluorescein and ROX on strand 1; blunt
Rad51-L1 [7] = target: T2, Rad51-L1; experiment: fluorescence anisotropy; 1 mM ATP, 3 mM MgCl2; Hill n 2.94; 30 mM HEPES-KOH pH 7.5, 100 mM KCl, 3 mM MgCl2, 1 mM DTT, 5% glycerol, 1 mM ATP, 25 C (EMSA: 2 mM ATP, 37 C, then 0.2% glutaraldehyde); conditions: protein: recombinant; label: 5' TAMRA
Rad51-S2 [8] = target: T1, Rad51-S2; experiment: fluorescence anisotropy; 1 mM ATP, 3 mM MgCl2; Hill n 2.25; 30 mM HEPES-KOH pH 7.5, 100 mM KCl, 3 mM MgCl2, 1 mM DTT, 5% glycerol, 1 mM ATP, 25 C (EMSA: 2 mM ATP, 37 C, then 0.2% glutaraldehyde); conditions: protein: recombinant; label: 5' TAMRA
Rad51 wild-type [9] = target: T4, Rad51 wild-type; experiment: fluorescence anisotropy; 1 mM ATP, 3 mM MgCl2; Hill n 2.86; 30 mM HEPES-KOH pH 7.5, 100 mM KCl, 3 mM MgCl2, 1 mM DTT, 5% glycerol, 1 mM ATP, 25 C (EMSA: 2 mM ATP, 37 C, then 0.2% glutaraldehyde); conditions: protein: recombinant; label: 5' TAMRA
Rad51-L2 [10] = target: T3, Rad51-L2; experiment: fluorescence anisotropy; 1 mM ATP, 3 mM MgCl2; Hill n 2.59; 30 mM HEPES-KOH pH 7.5, 100 mM KCl, 3 mM MgCl2, 1 mM DTT, 5% glycerol, 1 mM ATP, 25 C (EMSA: 2 mM ATP, 37 C, then 0.2% glutaraldehyde); conditions: protein: recombinant; label: 5' TAMRA
Swi5-Sfr1 complex = target: T5, Swi5-Sfr1 complex (UniProt Q9UUB7 1-85; Q9USV1 1-299); experiment: co-IP; purified Rad51 (2.5 uM) and Swi5-Sfr1 (2.5 uM) mixed in 30 mM Tris-HCl pH 7.5, 20 mM KCl, 3 mM MgCl2, 1 mM DTT, 5% glycerol, 0.05% NP-40, 30 min at 4 °C; precipitated with rabbit anti-Rad51 antibody and protein G magnetic beads; western blots for Rad51, Sfr1 and Swi5; conditions: both partners purified
T5 construct: Swi5, subunit of the Swi5-Sfr1 complex; Sfr1, subunit of the Swi5-Sfr1 complex; Over-expressed and purified as a preformed complex; detected in the co-IP by blots for Sfr1 and Swi5; No tag is mentioned; also called Swi5-Sfr1 auxiliary factor; source: E. coli BL21-Codonplus(DE3) RIPL, purified as a complex (ammonium sulfate, Q Sepharose, HiTrap Heparin, Superdex 200)
T5 sequence (looked up) 1: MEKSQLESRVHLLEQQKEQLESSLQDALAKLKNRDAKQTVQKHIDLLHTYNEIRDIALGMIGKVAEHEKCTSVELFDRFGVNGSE
T5 sequence (looked up) 2: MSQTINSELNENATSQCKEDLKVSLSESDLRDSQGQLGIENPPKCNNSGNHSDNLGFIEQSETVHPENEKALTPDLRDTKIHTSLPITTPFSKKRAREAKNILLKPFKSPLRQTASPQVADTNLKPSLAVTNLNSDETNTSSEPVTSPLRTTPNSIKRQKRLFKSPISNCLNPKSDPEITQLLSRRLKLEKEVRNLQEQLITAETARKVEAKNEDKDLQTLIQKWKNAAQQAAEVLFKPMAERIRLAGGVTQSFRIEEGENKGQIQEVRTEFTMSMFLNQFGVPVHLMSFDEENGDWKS

B1: 16(A)(-)_F+R_73 ssDNA (ssDNA)
DNA: AAATGAACATAAAGTAAATAAGTATAAGGATAATACAAAATTAAGTAAATGAATAAACATAGAAAATAAAGTA
modifications: fluorescein-dT at 31; ROX-dT at 42
- binding result (Rad51-S2 [1]): binds
- binding result (Rad51-L1 [2]): binds
- binding result (Rad51-L2 [3]): binds
- binding result (Rad51 wild-type [4]): binds

B2: 16(A)(-)_F+R_73 bp duplex (dsDNA)
DNA 1: AAATGAACATAAAGTAAATAAGTATAAGGATAATACAAAATTAAGTAAATGAATAAACATAGAAAATAAAGTA
DNA 2: TACTTTATTTTCTATGTTTATTCATTTACTTAATTTTGTATTATCCTTATACTTATTTACTTTATGTTCATTT
modifications: fluorescein-dT at 31 and ROX-dT at 42 of strand 1
- binding result (Rad51 wild-type [5]): binds
- binding result (Rad51-L2 [6]): binds

B3: [TAMRA]dT72 (ssDNA)
DNA: TTTTTTTTTTTTTTTTTTTTTTTTTTTTTTTTTTTTTTTTTTTTTTTTTTTTTTTTTTTTTTTTTTTTTTTT
- Kd (Rad51-L1 [7]): 664 ± 18 nM
- Kd (Rad51-S2 [8]): 895 ± 55 nM
- Kd (Rad51 wild-type [9]): 358 ± 25 nM
- Kd (Rad51-L2 [10]): 308 ± 19 nM

B4: wild-type Rad51 from the fission yeast Schizosaccharomyces pombe (natural protein, UniProt P36601 1-365, looked up)
chain: MADTEVEMQVSAADTNNNENGQAQSNYEYDVNVQDEEDEAAAGPMPLQMLEGNGITASDIKKIHEAGYYTVESIAYTPKRQLLLIKGISEAKADKLLGEASKLVPMGFTTATEYHIRRSELITITTGSKQLDTLLQGGVETGSITELFGEFRTGKSQICHTLAVTCQLPIDMGGGEGKCLYIDTEGTFRPVRLLAVADRYGLNGEEVLDNVAYARAYNADHQLELLQQAANMMSESRFSLLVVDSCTALYRTDFSGRGELSARQMHLARFMRTLQRLADEFGIAVVITNQVVAQVDGISFNPDPKKPIGGNILAHSSTTRLSLRKGRGEQRICKIYDSPCLPESEAIFAINSDGVGDPKEIIAPV
notes: Rad51 recombinase, Schizosaccharomyces pombe; No tag is mentioned; purification is by conventional chromatography; also called SpRad51; WT
- binding result (Swi5-Sfr1 complex): binds

B5: Rad51-L2 mutant (V295A in loop 2) (natural protein, Schizosaccharomyces pombe, UniProt P36601 1-365, looked up)
chain: MADTEVEMQVSAADTNNNENGQAQSNYEYDVNVQDEEDEAAAGPMPLQMLEGNGITASDIKKIHEAGYYTVESIAYTPKRQLLLIKGISEAKADKLLGEASKLVPMGFTTATEYHIRRSELITITTGSKQLDTLLQGGVETGSITELFGEFRTGKSQICHTLAVTCQLPIDMGGGEGKCLYIDTEGTFRPVRLLAVADRYGLNGEEVLDNVAYARAYNADHQLELLQQAANMMSESRFSLLVVDSCTALYRTDFSGRGELSARQMHLARFMRTLQRLADEFGIAVVITNQVVAQADGISFNPDPKKPIGGNILAHSSTTRLSLRKGRGEQRICKIYDSPCLPESEAIFAINSDGVGDPKEIIAPV
notes: Rad51 recombinase, Schizosaccharomyces pombe, with V295A in L2; source: E. coli BL21-Codonplus(DE3) RIPL, purified (same procedure as wild-type Rad51)
- binding result (Swi5-Sfr1 complex): binds

B6: Rad51-S2 mutant (R324A and K334A in site II) (natural protein, Schizosaccharomyces pombe, UniProt P36601 1-365, looked up)
chain: MADTEVEMQVSAADTNNNENGQAQSNYEYDVNVQDEEDEAAAGPMPLQMLEGNGITASDIKKIHEAGYYTVESIAYTPKRQLLLIKGISEAKADKLLGEASKLVPMGFTTATEYHIRRSELITITTGSKQLDTLLQGGVETGSITELFGEFRTGKSQICHTLAVTCQLPIDMGGGEGKCLYIDTEGTFRPVRLLAVADRYGLNGEEVLDNVAYARAYNADHQLELLQQAANMMSESRFSLLVVDSCTALYRTDFSGRGELSARQMHLARFMRTLQRLADEFGIAVVITNQVVAQVDGISFNPDPKKPIGGNILAHSSTTRLSLAKGRGEQRICAIYDSPCLPESEAIFAINSDGVGDPKEIIAPV
notes: Rad51 recombinase, Schizosaccharomyces pombe, with R324A and K334A in site II; source: E. coli BL21-Codonplus(DE3) RIPL, purified (same procedure as wild-type Rad51)
- binding result (Swi5-Sfr1 complex): binds

B7: Rad51-L1 mutant (R257A in loop 1) (natural protein, Schizosaccharomyces pombe, UniProt P36601 1-365, looked up)
chain: MADTEVEMQVSAADTNNNENGQAQSNYEYDVNVQDEEDEAAAGPMPLQMLEGNGITASDIKKIHEAGYYTVESIAYTPKRQLLLIKGISEAKADKLLGEASKLVPMGFTTATEYHIRRSELITITTGSKQLDTLLQGGVETGSITELFGEFRTGKSQICHTLAVTCQLPIDMGGGEGKCLYIDTEGTFRPVRLLAVADRYGLNGEEVLDNVAYARAYNADHQLELLQQAANMMSESRFSLLVVDSCTALYRTDFSGAGELSARQMHLARFMRTLQRLADEFGIAVVITNQVVAQVDGISFNPDPKKPIGGNILAHSSTTRLSLRKGRGEQRICKIYDSPCLPESEAIFAINSDGVGDPKEIIAPV
notes: Rad51 recombinase, Schizosaccharomyces pombe, with R257A in L1; source: E. coli BL21-Codonplus(DE3) RIPL, purified (as wild-type Rad51, with a HiTrap Blue column instead of HiTrap Heparin)
- binding result (Swi5-Sfr1 complex): binds
